The text below walks through data of PMC4994250, “A new mode of SAM domain mediated oligomerization observed in the CASKIN2 neuronal scaffolding protein” (Cell Communication and Signaling : CCS, 2016).

Data set [1] concerns the molecule itself. The experiment in a line: crystal structure; selenomethionine labeled SAM1-SAM2, 0.6 mM in T300 buffer, hanging drop at 4 °C, 0.1 M Tris pH 7.5, 2.4 M sodium formate, 5 mM DTT; SAD, 2.75 Å; one tandem in the asymmetric unit.
Data set [2] deals with the molecule itself. The data set is described as follows: AUC; sedimentation velocity, 300 mM NaCl, 20 mM sodium phosphate pH 7.8, 20 °C, 50,000 rpm; 10 and 34 μM loading, Kd fitted from the 34 μM experiment; monomer-dimer equilibrium (dimer to monomers).
Data set [3] deals with the molecule itself. The experiment in a line: AUC; sedimentation velocity, 150 mM NaCl, 20 mM sodium phosphate pH 7.8, 20 °C, 50,000 rpm; 10 and 34 μM loading, Kd fitted from the 34 μM experiment; monomer-dimer equilibrium (dimer to monomers).

B1: human CASKIN2 SAM1-SAM2 tandem (483-634), wild type (domain or fragment)
chain: not shown
modifications: selenomethionine in the protein used for crystals; uniform 15N label in the NMR samples
notes: CASKIN2, human, tandem SAM domains SAM1-SAM2, residues 483-634 of Uniprot Q8WXE0; Cloned into BamHI/XhoI of pET28; the vector probably adds an N-terminal His tag with linker residues (surmise); also called CASKIN2 SAM tandem; wild type SAM tandem; source: E. coli BL21:DE3, purified (Nickel-NTA, gel filtration)
What is called stoichiometry N is a count of units in the complex or per binding partner. Broadly, the Kd is the free concentration of one partner at which half of the binding sites on the other are occupied at equilibrium, for simple one-to-one binding. Lower therefore signals higher affinity. Take B1: the “stoichiometry N” value in data set [1] is 2. The Kd is 27.6 µM in data set [2] and 52.9 µM in data set [3].
